Data on 7 substances can be found in publication PMC12078792.

In assay [1] the target is HIV-1 CA hexamer tubes, disulfide-stabilized CA hexamers (A14C/E45C) assembled into large molecular weight tubes. Kind of assay: co-sedimentation with CA hexamer tubes. The note with it: read off a plot.
The target in assay [2] is HIV-1 CA hexamer tubes, disulfide-stabilized CA hexamers (A14C/E45C) assembled into large molecular weight tubes (HIV-1).
In assay [3] the target is HIV-1 CA hexamer tubes, disulfide-stabilized CA hexamers (A14C/E45C) assembled into large molecular weight tubes. The experiment in a line: co-sedimentation with CA hexamer tubes. The note with it: parent: est. 81; read off a plot.

Turning to “TRIM-NUP153C-HA with CbM.1 replaced by CbM.2 (∆1::2) (from UniProt Q0PF16;P49790) F1417A”, the response (% Bound NUP153c) in assay [1] (parent: est. 55) is 36. “TRIM-NUP153C-HA with the mutation F1417A in CbM.1 (from UniProt Q0PF16 1-304; P49790 896-1475)” displayed a TRIM-NUP153c restriction assay: increase in HIV-GFP-positive cells in assay [2] of 7 fold. “TRIM-NUP153C-HA, TRIM domain of rhesus TRIM5α (1-304) fused to the HA-tagged human NUP153 C-terminal domain (896-1475), wild type (from UniProt Q0PF16 1-304; P49790 896-1475)” had a TRIM-NUP153c restriction assay: HIV-GFP-transduced GFP-positive cells relative to empty vector control (% relative to empty vector control) in assay [2] of 18.5. On to “TRIM-NUP153C-HA, TRIM domain of rhesus TRIM5α (1-304) fused to the HA-tagged human NUP153 C-terminal domain (896-1475), wild type (from UniProt Q0PF16;P49790) ∆1::2 (CbM.1 replaced by CbM.2)”, for which the response (% Bound NUP153c) in assay [3] and in assay [1] (parent: est. 81) was 55 each time.

Turning to “TRIM-NUP153C-HA, TRIM domain of rhesus TRIM5α (1-304) fused to the HA-tagged human NUP153 C-terminal domain (896-1475), wild type (from UniProt Q0PF16;P49790) ∆1::3 (CbM.1 replaced by CbM.3)”, in assay [3], the response (% Bound NUP153c) stood at 47. “TRIM-NUP153C-HA, TRIM domain of rhesus TRIM5α (1-304) fused to the HA-tagged human NUP153 C-terminal domain (896-1475), wild type (from UniProt Q0PF16;P49790) ∆1::4 (CbM.1 replaced by CbM.4)”: in assay [3], the response (% Bound NUP153c) came to 51. Regarding “TRIM-NUP153C-HA, TRIM domain of rhesus TRIM5α (1-304) fused to the HA-tagged human NUP153 C-terminal domain (896-1475), wild type (from UniProt Q0PF16;P49790) ∆2::1 + ∆1::2 (CbM.1 and CbM.2 swapped)”, the response (% Bound NUP153c) in assay [1] (parent: est. 81) came out at 97.
